Results: patent publication US20080241867

System: hybrid GFP construct containing the protease cleavage sequence SVPSGCG (SEQ ID NO:21) followed by histidine residues

Substance	% GFP Released (60 minutes, 37° C.) [%]	Micrograms of GFP Released by Protease (overnight, IMAC beads) [µg]	µg GFP Released by Protease (60 minutes, 37° C.) [µg]	other results
Chymotrypsin	11	47	10.6	–
Crude Bromelain	–	86	–	–
Elastase	–	94	–	release of GFP from beads, worded: The most effective enzyme was elastase, with positive results apparent within five minutes after adding the enzyme
Pepsin	–	–	–	Micrograms of GFP Released by Protease (overnight, IMAC beads, pH 8.0): 0 µg
Trypsin	4.6	–	4.07	Micrograms of GFP Released by Protease (overnight, IMAC beads); Trypsin (Sample 1): 9 µg; Micrograms of GFP Released by Protease (overnight, IMAC beads); Trypsin (Sample 2): 56 µg
